pKd: −log10 of the molar value.
Key:
[1] = molecular target: HIV-1 CAP45.2.00.G3 envelope (Env) on Env.IMC.LucR virus (HIV-1 clade C); test: cell-based or functional assay
[2] = molecular target: HIV-1 CNE20 envelope (Env) on Env.IMC.LucR virus (HIV-1 clade BC); test: cell-based or functional assay
[3] = molecular target: HIV-1 X1632_S2_B10 envelope (Env) on Env.IMC.LucR virus (HIV-1 clade G); test: cell-based or functional assay
[4] = molecular target: HIV-1 DU172.17 envelope (Env) on Env.IMC.LucR virus (HIV-1 clade C); test: cell-based or functional assay
[5] = molecular target: HIV-1 REJO4541.67 envelope (Env) on Env.IMC.LucR virus (HIV-1 clade B); test: cell-based or functional assay
[6] = molecular target: HIV-1 AC10.0.29 envelope (Env) on Env.IMC.LucR virus (HIV-1 clade B); test: cell-based or functional assay
[7] = molecular target: HIV-1 DU422.1 envelope (Env) on Env.IMC.LucR virus (HIV-1 clade C); test: cell-based or functional assay
[8] = molecular target: Clade B BaL gp120 protein (HIV-1 Clade B, BaL); test: BLI (Octet), IgG on anti-hIgG Fc sensor, gp120 analyte, 1:1 fit
[9] = molecular target: Clade C DU172.17 gp120 protein (HIV-1 Clade C, DU172.17); test: as above

3BNC117 (antibody) showed an IC50 of virus neutralization (TZM-BL, luciferase) [1] of 2.7 µg/mL, an IC50 of virus neutralization (TZM-BL, luciferase) [2] of over 50 µg/mL and an IC50 of virus neutralization (TZM-BL, luciferase) [3] of 31.2 µg/mL. The IC50 of virus neutralization (TZM-BL, luciferase) [4] was 1.25 µg/mL, the IC50 of virus neutralization (TZM-BL, luciferase) [5] was 0.07 µg/mL and the IC50 of virus neutralization (TZM-BL, luciferase) [6] was 11 µg/mL. For the same substance, the IC50 of virus neutralization (TZM-BL, luciferase) [7] was over 50 µg/mL, the pKd [8] was 8.48 and the fold (KD vs average of 4 runs of L1A2) [8] was 6.07 fold. It also gave a koff [8] of 0.000291 s⁻¹, a kon [8] of 88500 M⁻¹ s⁻¹ and a pKd [9] of 7.02. It also gave a fold (KD vs average of 4 runs of L1A2) [9] of 3.77 fold, a koff [9] of 0.00457 s⁻¹ and a kon [9] of 47700 M⁻¹ s⁻¹.
